According to patent publication US7122342 (ZymoGenetics, dated 2006):

T1: PAR4 mutant R68A, expressed on COS cells
T1 sequence: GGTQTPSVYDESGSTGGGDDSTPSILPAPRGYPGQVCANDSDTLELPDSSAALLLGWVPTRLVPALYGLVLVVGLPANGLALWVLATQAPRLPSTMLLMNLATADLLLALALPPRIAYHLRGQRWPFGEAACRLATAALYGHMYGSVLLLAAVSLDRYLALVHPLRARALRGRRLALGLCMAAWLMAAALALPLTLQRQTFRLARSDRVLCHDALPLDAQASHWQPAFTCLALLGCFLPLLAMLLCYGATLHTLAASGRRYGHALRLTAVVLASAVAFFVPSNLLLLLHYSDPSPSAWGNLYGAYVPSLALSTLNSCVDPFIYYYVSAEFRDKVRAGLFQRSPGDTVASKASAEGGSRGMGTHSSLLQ

T2: protease-activated receptor 4 (PAR4), wild type, expressed on transiently transfected COS-7 cells
T2 sequence: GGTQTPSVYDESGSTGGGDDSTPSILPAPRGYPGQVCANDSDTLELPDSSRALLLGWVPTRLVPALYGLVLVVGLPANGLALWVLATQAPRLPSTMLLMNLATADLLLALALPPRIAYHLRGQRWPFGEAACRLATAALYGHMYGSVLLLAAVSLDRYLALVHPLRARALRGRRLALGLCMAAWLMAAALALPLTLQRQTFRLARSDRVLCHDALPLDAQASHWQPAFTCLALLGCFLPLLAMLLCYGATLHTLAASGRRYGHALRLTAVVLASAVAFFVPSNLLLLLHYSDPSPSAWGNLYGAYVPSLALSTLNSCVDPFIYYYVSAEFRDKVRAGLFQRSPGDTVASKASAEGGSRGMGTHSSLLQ

T3: protease-activated receptor 4 (PAR4), wild type, expressed on transiently transfected COS-7 cells (human, UniProt Q96RI0 18-385)
T3 sequence: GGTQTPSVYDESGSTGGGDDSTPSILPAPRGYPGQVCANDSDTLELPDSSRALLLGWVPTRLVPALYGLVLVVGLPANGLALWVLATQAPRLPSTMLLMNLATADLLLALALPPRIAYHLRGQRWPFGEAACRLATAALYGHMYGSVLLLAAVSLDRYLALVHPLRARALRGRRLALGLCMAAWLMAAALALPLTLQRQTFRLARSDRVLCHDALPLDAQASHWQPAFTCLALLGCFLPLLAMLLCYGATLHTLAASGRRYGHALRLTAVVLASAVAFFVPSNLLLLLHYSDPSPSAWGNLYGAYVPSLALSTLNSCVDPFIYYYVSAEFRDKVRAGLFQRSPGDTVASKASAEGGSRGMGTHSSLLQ


What follows are molecules tested on T1, PAR4 mutant R68A, expressed on COS cells (assay: not given).

Chain of plasmin (P00747 20-580): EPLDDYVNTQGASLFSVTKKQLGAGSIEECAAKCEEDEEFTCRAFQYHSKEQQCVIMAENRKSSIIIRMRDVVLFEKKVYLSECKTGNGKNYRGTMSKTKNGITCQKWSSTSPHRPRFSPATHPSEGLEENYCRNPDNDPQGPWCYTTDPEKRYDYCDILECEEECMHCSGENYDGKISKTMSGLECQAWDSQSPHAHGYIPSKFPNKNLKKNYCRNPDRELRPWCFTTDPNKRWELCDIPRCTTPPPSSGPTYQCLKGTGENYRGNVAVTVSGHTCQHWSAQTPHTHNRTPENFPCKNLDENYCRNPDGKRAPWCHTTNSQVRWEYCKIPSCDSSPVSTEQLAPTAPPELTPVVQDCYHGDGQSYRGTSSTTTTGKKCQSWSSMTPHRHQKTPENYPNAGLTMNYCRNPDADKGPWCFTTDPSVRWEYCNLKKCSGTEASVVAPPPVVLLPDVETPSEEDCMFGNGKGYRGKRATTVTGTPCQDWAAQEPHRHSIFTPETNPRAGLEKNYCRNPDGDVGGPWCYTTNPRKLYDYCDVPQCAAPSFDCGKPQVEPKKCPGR
Chain of plasmin (P00747 581-810): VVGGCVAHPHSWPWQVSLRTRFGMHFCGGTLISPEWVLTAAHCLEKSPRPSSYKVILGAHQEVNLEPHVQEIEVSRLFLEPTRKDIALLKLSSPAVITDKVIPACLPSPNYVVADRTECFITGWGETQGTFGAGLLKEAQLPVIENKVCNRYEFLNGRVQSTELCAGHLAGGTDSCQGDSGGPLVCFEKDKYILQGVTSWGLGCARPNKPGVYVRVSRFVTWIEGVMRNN
Chain of factor IXa (P00740 47-191): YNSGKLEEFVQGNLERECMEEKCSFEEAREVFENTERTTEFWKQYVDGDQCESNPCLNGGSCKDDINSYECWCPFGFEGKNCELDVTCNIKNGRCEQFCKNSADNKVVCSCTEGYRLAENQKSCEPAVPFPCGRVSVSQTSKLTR
Chain of factor IXa (P00740 227-461): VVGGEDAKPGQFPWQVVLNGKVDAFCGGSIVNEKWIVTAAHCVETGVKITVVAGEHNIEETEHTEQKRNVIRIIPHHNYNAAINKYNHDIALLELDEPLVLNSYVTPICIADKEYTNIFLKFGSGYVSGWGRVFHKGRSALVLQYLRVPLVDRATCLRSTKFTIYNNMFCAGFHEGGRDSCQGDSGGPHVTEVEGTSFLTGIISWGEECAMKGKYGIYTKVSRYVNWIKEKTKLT

Molecule	phosphatidylinositol 4,5 diphosphate hydrolysis assay
trypsin	(R68A) had no effect on PAR4 activation by thrombin or trypsin
thrombin (alpha-thrombin)	(R68A) had no effect on PAR4 activation by thrombin or trypsin

These molecules were tested on T2, protease-activated receptor 4 (PAR4), wild type, expressed on transiently transfected COS-7 cells (assay: not given).

Molecule	phosphoinositide hydrolysis (activation of PAR4)
factor XIa	had little or no activity against PAR4
factor Xa	Small effects, however, were observed with factor Xa at high concentrations (100 nM)
plasmin	had little or no activity against PAR4
factor VIIa	had little or no activity against PAR4
factor IXa	had little or no activity against PAR4
elastase	Chymotrypsin and elastase failed to activate PAR4
urokinase	had little or no activity against PAR4
chymotrypsin	Chymotrypsin and elastase failed to activate PAR4

The molecules below were run against T3, protease-activated receptor 4 (PAR4), … (assay: cell-based or functional assay).

Molecule	EC50 of activation of PAR4 on COS cells
GYPGQV [PAR4 activating peptide, hexapeptide GYPGQV]	~100000 nM

What follows are molecules tested against protease-activated receptor 4 (PAR4), wild type, expressed on transiently transfected COS-7 cells (human) (UniProt Q96RI0) (assay: cell-based or functional assay).

Molecule	phosphoinositide hydrolysis, half-maximal concentration (EC50)
thrombin (alpha-thrombin) (enzyme)	5 nM
trypsin (enzyme)	5 nM
